What was measured:
N-SMase [1] = experiment: Western immunoblot and densitometric analysis of N-SMase; assay type: cell-based, human; settings: mutant CC cells vs WT, FIG. 3
Procedure: (§1) FIG. 3 depicts a western immunoblot assay and densitometric analysis of N-SMase. About 10 μg of partially purified N-SMase preparations from WT (MG-63) and mutant (CC) cells were solubilized and subjected to 7.5% polyacrylamide SDS gel electrophoresis. The proteins were then transferred to PVDF membranes and subjected to a western immunoblot assay employing an N-SMase antibody or β-actin antibody (control). The immunoreactive protein bands were then subjected to densitometric scanning.
as §1, with “Western” for “FIG. 3 depicts a western”, “analysis was used to quantify the level” for “analysis”, “N-SMase in WT and CC cells.” for “N-SMase.”, “antibody.” for “antibody or β-actin antibody (control).”

N-SMase [2] = experiment: N-SMase activity gel analysis of partially purified preparations; assay type: cell-based, human; settings: CC mutant cells compared to control cells, FIG. 2
Procedure: FIG. 2 depicts N-SMase activity in mutant and WT cells, as determined using gel analysis. Partially purified preparations of the MG-63 (WT) cell line and the mutant cell line CC were subjected to 7.5% polyacrylamide gel electrophoresis at 4° C. employing sodium lauryl sarcosine as the detergent. The gel was calibrated with pre-stained protein molecular weight standards (phosphorylase B, bovine serum albumin (BSA), and ovalbumin). Gel slices were excised and subjected to an N-SMase assay employing […] as the substrate.
N-SMase activity in mutant and WT cells (subjected to detergent extraction as described above), was determined using gel analysis. Partially purified preparations of the MG-63 (WT) cell line and the mutant cell line CC were subjected to 7.5% polyacrylamide gel electrophoresis at 4° C. employing sodium lauryl sarcosine as the detergent. The gel was calibrated with pre-stained protein molecular weight standards (phosphorylase B, bovine serum albumin (BSA), and ovalbumin; Bio-Rad). Gel slices were excised, transferred to glass tubes, and subjected to an N-SMase assay at pH 7.4 employing […] as the substrate.

B1: N-SMase ribozyme: U1 snRNA-derived hammerhead antisense ribozyme targeting N-SMase mRNA, expressed from vector pNSMRz; stably transfected MG63 clones CC and C-B (nucleic acid, listed as Homo sapiens)
chain: AUACUUACCUGGCAGGGGAGAUACCAUGAUCACGAAGGUGGUUUUCCCAGGGCGAGGCUUAUCCAUUGGCCUCCGGAUGUGCUGACCCCUGCGAUUUCCCCAAAUGUGGGAAACUCGACUGCAGAAUAUGUCAUCAUAUUGCCUGAUGAGUCCGUGAGGACGAAACCUCUUCACAUGAAAAAGUGGGGCUGCGUUCGCGCUUCCCCG
Level of N-SMase by western immunoblot densitometry (N-SMase [1]): greatly reduced
Level of N-SMase activity in gel slices (N-SMase [2]): greatly reduced

Source: patent US7230094B2, “Neutral sphingomyelinase antisense ribozyme and uses thereof” (priority 2001, dated 2007)
